B1: target 1 insC 3' of 17,insU 3' of 17 (mixed)
RNA 1: CACCCGUGCAAAAAUGCAGGGGUCUAAAACUGAGCGGAUAACCUCUCUAUGG
RNA 2: GGGAAUGGAUCCACAUCUACGAAUUCGUACCAUAGCUAGAGGUUAUCCGCUCACCGAGAUCGGAAGAGCACACGU
B2: target 1 U3A,G17A (mixed)
RNA 1: CACCCGUGCAAAAAUGCAGGGGUCUAAAACUGAGCGGAUAACCUCUCUAUGG
RNA 2: GGGAAUGGAUCCACAUCUACGAAUUCGUACCAUAAAGAGGUUAUCCGCACACCGAGAUCGGAAGAGCACACGU
B3: target 1 C6G,A16U (mixed)
RNA 1: CACCCGUGCAAAAAUGCAGGGGUCUAAAACUGAGCGGAUAACCUCUCUAUGG
RNA 2: GGGAAUGGAUCCACAUCUACGAAUUCGUACCAUAGUGAGGUUAUCGGCUCACCGAGAUCGGAAGAGCACACGU
B4: target 1 insA 3' of 21,insA 3' of 8 (mixed)
RNA 1: CACCCGUGCAAAAAUGCAGGGGUCUAAAACUGAGCGGAUAACCUCUCUAUGG
RNA 2: GGGAAUGGAUCCACAUCUACGAAUUCGUACCAAUAGAGAGGUUAUACCGCUCACCGAGAUCGGAAGAGCACACGU
B5: target 1 C4A,G15U (mixed)
RNA 1: CACCCGUGCAAAAAUGCAGGGGUCUAAAACUGAGCGGAUAACCUCUCUAUGG
RNA 2: GGGAAUGGAUCCACAUCUACGAAUUCGUACCAUAGAUAGGUUAUCCGAUCACCGAGAUCGGAAGAGCACACGU
B6: target 1 insC 3' of 20,insG 3' of 1 (mixed)
RNA 1: CACCCGUGCAAAAAUGCAGGGGUCUAAAACUGAGCGGAUAACCUCUCUAUGG
RNA 2: GGGAAUGGAUCCACAUCUACGAAUUCGUACCACUAGAGAGGUUAUCCGCUCAGCCGAGAUCGGAAGAGCACACGU
B7: target 1 C4A,A16G (mixed)
RNA 1: CACCCGUGCAAAAAUGCAGGGGUCUAAAACUGAGCGGAUAACCUCUCUAUGG
RNA 2: GGGAAUGGAUCCACAUCUACGAAUUCGUACCAUAGGGAGGUUAUCCGAUCACCGAGAUCGGAAGAGCACACGU
B8: target 1 A16C,C22A (mixed)
RNA 1: CACCCGUGCAAAAAUGCAGGGGUCUAAAACUGAGCGGAUAACCUCUCUAUGG
RNA 2: GGGAAUGGAUCCACAUCUACGAAUUCGUAACAUAGCGAGGUUAUCCGCUCACCGAGAUCGGAAGAGCACACGU
B9: target 1 insU 3' of 12,insA 3' of 6 (mixed)
RNA 1: CACCCGUGCAAAAAUGCAGGGGUCUAAAACUGAGCGGAUAACCUCUCUAUGG
RNA 2: GGGAAUGGAUCCACAUCUACGAAUUCGUACCAUAGAGAGGUUUAUCCAGCUCACCGAGAUCGGAAGAGCACACGU
B10: target 1 insU 3' of 17,insA 3' of 13 (mixed)
RNA 1: CACCCGUGCAAAAAUGCAGGGGUCUAAAACUGAGCGGAUAACCUCUCUAUGG
RNA 2: GGGAAUGGAUCCACAUCUACGAAUUCGUACCAUAGUAGAGAGUUAUCCGCUCACCGAGAUCGGAAGAGCACACGU
B11: target 1 U8G,U19A (mixed)
RNA 1: CACCCGUGCAAAAAUGCAGGGGUCUAAAACUGAGCGGAUAACCUCUCUAUGG
RNA 2: GGGAAUGGAUCCACAUCUACGAAUUCGUACCAAAGAGAGGUUAGCCGCUCACCGAGAUCGGAAGAGCACACGU
B12: target 1 insA 3' of 19,insC 3' of 3 (mixed)
RNA 1: CACCCGUGCAAAAAUGCAGGGGUCUAAAACUGAGCGGAUAACCUCUCUAUGG
RNA 2: GGGAAUGGAUCCACAUCUACGAAUUCGUACCAUAAGAGAGGUUAUCCGCUCCACCGAGAUCGGAAGAGCACACGU
B13: target 1 U10G,C22A (mixed)
RNA 1: CACCCGUGCAAAAAUGCAGGGGUCUAAAACUGAGCGGAUAACCUCUCUAUGG
RNA 2: GGGAAUGGAUCCACAUCUACGAAUUCGUAACAUAGAGAGGUGAUCCGCUCACCGAGAUCGGAAGAGCACACGU

The target in this data set is T1, EsCas13d, nuclease-dead (Eubacterium siraeum, UniProt B0MS50, R295A;H300A;R849A;H854A).
T1 sequence: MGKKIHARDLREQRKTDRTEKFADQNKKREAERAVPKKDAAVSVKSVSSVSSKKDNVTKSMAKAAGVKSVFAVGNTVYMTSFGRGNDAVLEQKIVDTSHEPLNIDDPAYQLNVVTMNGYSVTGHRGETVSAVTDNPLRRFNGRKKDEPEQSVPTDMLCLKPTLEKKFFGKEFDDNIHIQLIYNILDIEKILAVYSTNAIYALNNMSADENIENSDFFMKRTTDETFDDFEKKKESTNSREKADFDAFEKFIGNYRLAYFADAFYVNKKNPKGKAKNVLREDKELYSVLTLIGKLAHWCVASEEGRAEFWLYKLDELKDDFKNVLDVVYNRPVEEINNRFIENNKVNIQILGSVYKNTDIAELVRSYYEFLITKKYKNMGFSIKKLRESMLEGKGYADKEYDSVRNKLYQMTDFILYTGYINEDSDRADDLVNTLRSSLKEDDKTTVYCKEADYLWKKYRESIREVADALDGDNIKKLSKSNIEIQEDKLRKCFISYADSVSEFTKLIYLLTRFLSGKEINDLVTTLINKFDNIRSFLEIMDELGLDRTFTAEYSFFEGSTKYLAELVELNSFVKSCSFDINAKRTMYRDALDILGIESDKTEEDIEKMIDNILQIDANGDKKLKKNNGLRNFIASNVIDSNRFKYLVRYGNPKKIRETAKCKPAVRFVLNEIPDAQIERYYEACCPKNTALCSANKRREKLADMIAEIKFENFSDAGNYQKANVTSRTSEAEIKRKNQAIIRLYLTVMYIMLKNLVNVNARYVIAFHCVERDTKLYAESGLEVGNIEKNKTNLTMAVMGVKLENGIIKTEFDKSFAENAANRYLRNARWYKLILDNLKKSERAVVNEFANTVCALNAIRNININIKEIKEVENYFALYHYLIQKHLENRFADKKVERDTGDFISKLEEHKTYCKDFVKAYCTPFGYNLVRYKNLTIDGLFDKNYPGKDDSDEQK
Kind of data set: crRNA (strand 1, pre-loaded); Mg2+; 40 mM Tris-HCl pH 7.5, 150 mM NaCl, 6 mM MgCl2, 1 mM DTT, 0.1% Tween-20, 0.2 mg/ml BSA; 25 C; 10 min per concentration, then washed. The conditions noted are these: tags: His6-TwinStrep-SUMO cleaved; N-terminal SNAP kept (SNAP-Surface 488); label: 3' end held by stalled T7 RNA polymerase.
As for B1, the Kd is 95 ± 14 nM.
Then B2, with 46 ± 5 nM.
Then B3, with 40.9 ± 3.4 nM; and B4, with 38.9 ± 1.8 nM.
Then B5, with 51 ± 19 nM; and B6, with 9.3 ± 0.4 nM.
Molecule B7 had a Kd of 17.2 ± 1.5 nM.
In the case of B8 it was 71 ± 7 nM.
Then B9, with 8.6 ± 0.9 nM; and B10, with 13.1 ± 1.3 nM.
In the case of B11 it was 61 ± 13 nM; in that of B12, 17.4 ± 1.9 nM; in that of B13, 60 ± 14 nM.

One may read the Kd as a measure of binding affinity in units of concentration. A high value points to weaker binding.

Source of the values: publication PMC10786891, “Massively parallel profiling of RNA-targeting CRISPR-Cas13d”.
